Experimental data from the supplement of paper PMC10065799, “High-throughput profiling of sequence recognition by tyrosine kinases and SH2 domains using bacterial peptide display” (eLife, 2023).

What was measured:
FGFR1 = FGFR1 (UniProt P11362); assay: phosphorylation enrichment, bacterial display (enrichment ratio); higher = better substrate or ligand; peptides without Tyr show the background
c-Abl (mouse) = assay: as above
EPHB2 = EPHB2 (UniProt P29323); assay: as above
MERTK = MERTK (UniProt Q12866); assay: as above
Fes = Fes (UniProt P07332); assay: as above
Fes, sequence (P07332 whole entry, looked up): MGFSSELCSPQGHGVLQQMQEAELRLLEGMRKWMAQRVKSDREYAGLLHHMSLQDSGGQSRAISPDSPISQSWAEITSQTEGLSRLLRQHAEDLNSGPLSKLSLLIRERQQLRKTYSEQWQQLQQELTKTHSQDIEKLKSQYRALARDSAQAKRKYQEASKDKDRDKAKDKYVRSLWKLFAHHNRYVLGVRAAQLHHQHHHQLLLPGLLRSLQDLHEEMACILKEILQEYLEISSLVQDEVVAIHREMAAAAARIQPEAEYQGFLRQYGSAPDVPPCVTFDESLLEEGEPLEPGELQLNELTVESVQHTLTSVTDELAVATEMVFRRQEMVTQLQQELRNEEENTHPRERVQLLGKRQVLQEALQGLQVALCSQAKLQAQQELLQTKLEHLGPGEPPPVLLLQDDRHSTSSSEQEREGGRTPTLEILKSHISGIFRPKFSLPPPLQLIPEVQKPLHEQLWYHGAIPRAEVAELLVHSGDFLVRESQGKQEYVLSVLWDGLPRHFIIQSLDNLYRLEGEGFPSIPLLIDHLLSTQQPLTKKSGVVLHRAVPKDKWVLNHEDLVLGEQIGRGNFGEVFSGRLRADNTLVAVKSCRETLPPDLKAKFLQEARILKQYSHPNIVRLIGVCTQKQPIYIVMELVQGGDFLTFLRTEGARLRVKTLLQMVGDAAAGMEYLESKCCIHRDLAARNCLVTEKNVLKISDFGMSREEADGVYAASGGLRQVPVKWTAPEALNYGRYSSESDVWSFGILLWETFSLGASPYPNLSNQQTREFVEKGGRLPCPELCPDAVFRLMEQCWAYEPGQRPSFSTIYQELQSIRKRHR

AncSZ = assay: as above
Jak2 = Jak2 (UniProt O60674); assay: as above
Jak2, sequence (O60674 whole entry, looked up): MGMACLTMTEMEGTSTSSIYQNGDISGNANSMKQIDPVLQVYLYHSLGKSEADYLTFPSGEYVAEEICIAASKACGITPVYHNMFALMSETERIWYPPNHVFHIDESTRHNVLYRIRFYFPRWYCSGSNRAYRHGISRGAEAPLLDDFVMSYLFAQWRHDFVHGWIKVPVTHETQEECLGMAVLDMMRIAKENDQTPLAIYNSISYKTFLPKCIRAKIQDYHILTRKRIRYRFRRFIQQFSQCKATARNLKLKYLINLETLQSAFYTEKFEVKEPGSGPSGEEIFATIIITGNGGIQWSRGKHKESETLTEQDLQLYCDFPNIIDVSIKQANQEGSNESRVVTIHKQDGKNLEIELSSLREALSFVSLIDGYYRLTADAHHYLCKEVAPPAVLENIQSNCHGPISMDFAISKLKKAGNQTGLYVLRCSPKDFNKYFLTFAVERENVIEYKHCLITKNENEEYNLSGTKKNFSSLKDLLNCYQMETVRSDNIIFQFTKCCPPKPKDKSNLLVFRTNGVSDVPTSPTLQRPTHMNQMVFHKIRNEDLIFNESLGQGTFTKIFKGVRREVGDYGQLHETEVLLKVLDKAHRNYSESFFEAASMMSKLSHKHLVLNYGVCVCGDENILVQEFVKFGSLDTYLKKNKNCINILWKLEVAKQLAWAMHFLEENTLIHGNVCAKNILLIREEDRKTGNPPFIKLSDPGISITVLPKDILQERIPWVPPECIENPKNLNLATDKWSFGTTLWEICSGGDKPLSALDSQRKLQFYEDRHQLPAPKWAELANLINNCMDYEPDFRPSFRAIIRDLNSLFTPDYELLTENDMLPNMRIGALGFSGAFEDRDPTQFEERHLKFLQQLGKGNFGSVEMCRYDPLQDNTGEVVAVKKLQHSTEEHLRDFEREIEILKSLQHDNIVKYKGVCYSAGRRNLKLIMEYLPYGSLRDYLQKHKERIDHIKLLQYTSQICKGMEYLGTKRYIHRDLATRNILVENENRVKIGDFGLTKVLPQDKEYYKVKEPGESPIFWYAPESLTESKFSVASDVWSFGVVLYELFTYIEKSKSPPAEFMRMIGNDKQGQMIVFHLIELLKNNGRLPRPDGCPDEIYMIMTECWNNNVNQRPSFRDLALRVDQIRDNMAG

Fyn = Fyn (UniProt P06241); assay: as above
Fyn, sequence (P06241 whole entry, looked up): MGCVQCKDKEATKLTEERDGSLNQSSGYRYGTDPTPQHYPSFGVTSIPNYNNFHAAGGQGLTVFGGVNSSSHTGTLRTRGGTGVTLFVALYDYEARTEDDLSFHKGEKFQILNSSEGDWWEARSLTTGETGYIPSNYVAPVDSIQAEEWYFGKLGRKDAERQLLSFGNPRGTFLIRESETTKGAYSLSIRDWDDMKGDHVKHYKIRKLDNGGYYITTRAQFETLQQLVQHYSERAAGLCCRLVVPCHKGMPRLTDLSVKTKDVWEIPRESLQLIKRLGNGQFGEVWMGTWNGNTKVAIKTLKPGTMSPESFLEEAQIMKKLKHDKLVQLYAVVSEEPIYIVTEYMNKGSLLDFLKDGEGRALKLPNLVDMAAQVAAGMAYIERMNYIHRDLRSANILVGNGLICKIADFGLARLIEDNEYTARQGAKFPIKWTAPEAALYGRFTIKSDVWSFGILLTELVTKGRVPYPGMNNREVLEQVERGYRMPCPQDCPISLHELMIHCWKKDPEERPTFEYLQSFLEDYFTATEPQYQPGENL

Hck = Hck (UniProt P08631); assay: as above
Fer (mouse) = assay: as above
EPHB1 = EPHB1 (UniProt P54762); assay: as above
FGFR3 = FGFR3 (UniProt P22607); assay: as above
FGFR3, sequence (P22607 whole entry, looked up): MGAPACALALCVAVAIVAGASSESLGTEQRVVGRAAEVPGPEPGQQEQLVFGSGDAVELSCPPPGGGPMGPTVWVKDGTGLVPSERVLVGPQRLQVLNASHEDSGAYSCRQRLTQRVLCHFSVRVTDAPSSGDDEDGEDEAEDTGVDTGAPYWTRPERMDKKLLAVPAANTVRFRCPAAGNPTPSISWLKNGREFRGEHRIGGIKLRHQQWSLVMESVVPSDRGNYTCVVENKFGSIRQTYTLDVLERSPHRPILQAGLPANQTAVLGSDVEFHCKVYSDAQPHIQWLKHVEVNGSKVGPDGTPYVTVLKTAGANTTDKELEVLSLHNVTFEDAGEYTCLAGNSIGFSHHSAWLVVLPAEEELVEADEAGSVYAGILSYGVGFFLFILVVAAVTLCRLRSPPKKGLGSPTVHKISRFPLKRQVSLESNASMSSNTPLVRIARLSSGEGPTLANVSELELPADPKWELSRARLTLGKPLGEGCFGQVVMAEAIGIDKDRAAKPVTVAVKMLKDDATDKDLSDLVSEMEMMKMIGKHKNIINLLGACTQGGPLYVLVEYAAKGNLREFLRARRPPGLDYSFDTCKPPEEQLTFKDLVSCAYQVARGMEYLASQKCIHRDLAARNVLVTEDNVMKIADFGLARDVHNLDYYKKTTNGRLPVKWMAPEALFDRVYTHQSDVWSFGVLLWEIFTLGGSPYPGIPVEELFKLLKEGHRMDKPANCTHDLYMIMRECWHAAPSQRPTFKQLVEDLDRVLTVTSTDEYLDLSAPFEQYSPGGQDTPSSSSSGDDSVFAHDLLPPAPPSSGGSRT

c-Src = assay: as above
Grb2 SH2 = Grb2 SH2 (UniProt P62993); assay: SH2 binding enrichment of the phosphorylated peptide, bacterial display (enrichment ratio); higher = better substrate or ligand; peptides without Tyr show the background
Grb2 SH2, sequence (P62993 whole entry, looked up): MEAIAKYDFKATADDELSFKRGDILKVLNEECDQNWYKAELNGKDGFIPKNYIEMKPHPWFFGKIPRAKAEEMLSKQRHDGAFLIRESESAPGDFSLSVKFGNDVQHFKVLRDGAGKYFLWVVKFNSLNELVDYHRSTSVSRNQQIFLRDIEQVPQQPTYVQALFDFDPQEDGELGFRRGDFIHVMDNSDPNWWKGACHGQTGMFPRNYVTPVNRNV

c-Src SH2 = assay: as above
SHP2-C SH2 = assay: as above
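Throughout, for SH2 binding enrichment of the phosphorylated peptide, bacterial display: peptide library displayed on the E. coli surface as eCPX fusions, selected cells deep-sequenced, score is each peptide's frequency after selection divided by its frequency in the input.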
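Throughout, for phosphorylation enrichment, bacterial display: 11-residue human phosphosite peptides and single-mutation variants displayed on the E. coli surface, counted by deep sequencing, each peptide's frequency after selection divided by its frequency in the unselected input library; frequency after pTyr selection over input frequency; kinase dosed for 20-30% of maximal phosphorylation in three min.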

EPHB2, sequence (P29323 whole entry, looked up): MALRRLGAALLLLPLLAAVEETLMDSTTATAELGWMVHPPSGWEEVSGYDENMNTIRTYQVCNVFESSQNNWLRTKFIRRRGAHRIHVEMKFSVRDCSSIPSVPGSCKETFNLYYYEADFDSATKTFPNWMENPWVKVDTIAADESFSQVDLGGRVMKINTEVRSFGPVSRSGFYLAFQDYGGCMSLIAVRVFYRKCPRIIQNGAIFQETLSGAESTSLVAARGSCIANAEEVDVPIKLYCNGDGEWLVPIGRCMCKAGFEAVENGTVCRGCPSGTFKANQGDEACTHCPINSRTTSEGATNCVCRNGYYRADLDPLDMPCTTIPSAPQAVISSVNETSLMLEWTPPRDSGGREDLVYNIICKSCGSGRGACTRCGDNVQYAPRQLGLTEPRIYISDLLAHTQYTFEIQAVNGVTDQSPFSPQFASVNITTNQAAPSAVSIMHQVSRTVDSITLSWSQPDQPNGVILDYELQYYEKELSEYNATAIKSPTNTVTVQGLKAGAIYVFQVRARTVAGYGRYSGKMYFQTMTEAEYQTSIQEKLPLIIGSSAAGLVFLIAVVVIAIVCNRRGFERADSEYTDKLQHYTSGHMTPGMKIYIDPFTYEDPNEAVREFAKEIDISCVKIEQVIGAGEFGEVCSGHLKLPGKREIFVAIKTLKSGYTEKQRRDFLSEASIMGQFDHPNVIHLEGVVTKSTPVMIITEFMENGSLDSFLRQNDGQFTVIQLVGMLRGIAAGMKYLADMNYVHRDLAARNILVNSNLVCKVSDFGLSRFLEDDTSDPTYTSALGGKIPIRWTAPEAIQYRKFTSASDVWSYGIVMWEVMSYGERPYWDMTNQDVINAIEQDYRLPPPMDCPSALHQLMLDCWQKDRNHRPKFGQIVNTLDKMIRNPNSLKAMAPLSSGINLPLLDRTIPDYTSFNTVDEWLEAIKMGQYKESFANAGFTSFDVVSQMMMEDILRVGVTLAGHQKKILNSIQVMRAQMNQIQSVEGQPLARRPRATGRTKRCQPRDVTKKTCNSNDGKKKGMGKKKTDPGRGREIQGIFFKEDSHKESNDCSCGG

Row | Sequence | phosphorylation enrichment (FGFR1) | phosphorylation enrichment (c-Abl (mouse)) | phosphorylation enrichment (EPHB2) | phosphorylation enrichment (MERTK) | phosphorylation enrichment (Fes) | phosphorylation enrichment (AncSZ) | phosphorylation enrichment (Jak2) | phosphorylation enrichment (Fyn) | phosphorylation enrichment (Hck) | phosphorylation enrichment (Fer (mouse)) | phosphorylation enrichment (EPHB1) | phosphorylation enrichment (FGFR3) | phosphorylation enrichment (c-Src) | SH2 binding enrichment (Grb2 SH2) | SH2 binding enrichment (c-Src SH2) | SH2 binding enrichment (SHP2-C SH2)
1 | DEEEEYEYMNR [ERBB3_Y1197_D1194E] | 0.536 | 0.631 | 0.625 | 0.404 | 1.17 | 1.17 | 1 | 0.567 | 0.484 | 0.466 | 0.493 | 0.665 | 0.408 | 0.817 | 0.526 | 0.645
2 | FADTAYNFRHG [PAH_Y166_I164T_YF] | 0.342 | 0.544 | 0.386 | 0.305 | 0.62 | 0.599 | 0.45 | 0.369 | 0.379 | 0.317 | 0.363 | 0.39 | 0.415 | 0.881 | 0.45 | 0.562
3 | EDNPEYMRLRN [ADD2_Y31_D28N] | 0.547 | 0.713 | 0.515 | 0.408 | 0.969 | 1.09 | 1.05 | 0.444 | 0.489 | 0.447 | 0.518 | 0.653 | 0.459 | 0.85 | 0.511 | 0.73
4 | LEQQKYTVTVD [IKBKB_Y199] | 0.647 | 0.634 | 0.746 | 0.71 | 1.98 | 1.21 | 0.954 | 0.706 | 0.726 | 0.674 | 0.566 | 1.06 | 0.593 | 0.804 | 0.567 | 0.616
5 | CTTIHYNFMCT [TP53_Y234_N239T_YF] | 0.538 | 0.839 | 0.485 | 0.419 | 1.01 | 1.06 | 0.997 | 0.459 | 0.501 | 0.501 | 0.54 | 0.752 | 0.551 | 2.04 | 1.66 | 1.99
6 | DDKEFYSVHNK [MET_Y1235_Y1230D_YF] | 0.525 | 0.828 | 0.527 | 0.422 | 0.99 | 0.882 | 0.854 | 0.413 | 0.453 | 0.47 | 0.488 | 0.571 | 0.531 | 0.831 | 0.486 | 0.621
7 | TYVKSYTIHYS [F5_Y2153_M2148T] | 0.4 | 0.625 | 0.722 | 0.483 | 1.15 | 1.27 | 0.633 | 0.508 | 0.567 | 0.568 | 0.594 | 0.696 | 0.44 | 0.791 | 0.652 | 0.783
8 | ENAGYYFRVSA | 0.508 | 0.775 | 0.665 | 0.347 | 1.26 | 1.26 | 1.21 | 0.435 | 0.476 | 0.456 | 0.568 | 0.719 | 0.322 | 0.788 | 0.415 | 0.976
9 | LSIDRYHAIVY [NPSR1_Y147] | 3.36 | 0.982 | 0.594 | 0.7 | 1.15 | 0.83 | 1.65 | 0.546 | 0.533 | 0.544 | 0.438 | 1.87 | 0.89 | 1.25 | 5.31 | 1.03
